Tested on: MS2 coat protein
Assay: apparent KD of MS2 coat protein; designed switch direction (-1 OFF switch, 1 ON switch): 1; higher = weaker reporter binding
Summary of the method: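 Stalled E. coli RNA polymerase transcribed designed RNA switches on Illumina chips, which were then titrated with SNAP-549-labelled MS2 coat protein, doubling from 0.7 or 1.5 nM to 3 µM. Steps lasted from 0.8–1.5 h at the lowest concentration to 10–20 min at the highest. The apparent KD is each design's median over clusters of curve-fitted normalised fluorescence.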

[1] = input ligand: microRNA oligo, concentration not stated
[2] = Eterna round: R95, input ligand: FMN 200 uM
[3] = Eterna round: R95, input ligand: microRNA oligo, concentration not stated
[4] = Eterna round: R95, input ligand: none

Row | Sequence | apparent KD of MS2 coat protein (input ligand: FMN 200 uM) [nM] | apparent KD of MS2 coat protein [1] [nM] | apparent KD of MS2 coat protein (input ligand: none) [nM] | apparent KD of MS2 coat protein [2] [nM] | apparent KD of MS2 coat protein [3] [nM] | apparent KD of MS2 coat protein [4] [nM]
1 | AGCCGAGACACAGGAUAUAGAUAUCUACAUGAGGAUCACCCAUGUAGCAACACGUGGUAGUGAUACUAGAAGGGUGCUCGGCGC [Omei SS(NG)2 Cv9] (Eterna round: R96, puzzle: Same State NG 2) | 20.2 | 60 | 73.1 | – | – | –
2 | GCUCGAAUCAGAACCAACAUGAGGAUCACCCAUGUGUGUUGGUAGGAUAUCGUUUCUAAGGGAAACGAGAAGGGCCGAACGAGC [SameState NG3 #7] (Eterna round: R96, puzzle: Same State NG 3) | 46.9 | 49.4 | 89.1 | – | – | –
3 | AUAUUACAUGAGGAUCACCCAUGUCUCUAAAGUCGAGGAUAUGGGCAGGUUAUAUCCGAACCAGAAGGCGAAUUAU [SS1 Teenbexe 9] (puzzle: Same State 1) | – | – | – | 66.9 | 317 | 633
4 | AAAGGAUGAUGUUACAUGAGGAUCACCCAUGUAGUGAUAACUAAGGAUAUGUGUUAAACCAGUUAAUAGAAGGUAGGAUCAUUA [AK SSNG3-V2-6] (Eterna round: R96, puzzle: Same State NG 3) | 43.8 | 35.1 | 49.4 | – | – | –
5 | AGCUAUUAAUCAGGAUAUGGUGACAUGAGGAUCACCCAUGUAUAGAUGAUUAAAUGUGGUCUAAACUAGAAGGGAUUGCUAACA [SameState NG2 #55] (Eterna round: R96, puzzle: Same State NG 2) | 214 | 247 | 219 | – | – | –
6 | GAGAGAGGAAGCGAGGAUAUCGUGUUGAGUACAUGAGGAUCACCCAUGUUGUAGGUAGAGGUAGGCGAGAAGGCGCAGGAGAAGA [JR_SS2_Sub0100] (puzzle: Same State 2) | – | – | – | 50.2 | 39.3 | 41
7 | AGUCCAGCGAAAGCUGGACAAAAGUAUGUACAUGAGGAUCACCCAUGUUCAUGUACAAGCUUUUUGCUCGUCUUAAA [JL mod - D95 - 10] (puzzle: Sensor for hsa-mir-208a) | – | – | – | 578 | 20.3 | 620
8 | AAGUUACUAUCUCAGGAUAUCAUGUCAAAGACAUGAGGAUCACCCAUGUACCAGGAAACUGGUUAUGAGAAGGGAGAUAGUAACG [Mat - Same State 2 - Mod - D53] (puzzle: Same State 2) | – | – | – | 497 | 149 | 443
9 | AAAAGACAUGAGGAUCACCCAUGUCAAGACGUGGGAGGAUAUGCAUGGAAAACAUGCUGUGCAGAAGGCCCGUGUC [SS1 - 20] (Eterna round: R96, puzzle: Same State 1) | 16.2 | 16.6 | 24 | – | – | –
10 | AGAUCAUGACGAGGAUAUGGUACAUGAGGAUCACCCAUGUAUGUACCAUAAUUAGUAUUAGGAAACCAGAAGGCGUCGUGGUCA [JL SSNG2 1.18] (Eterna round: R96, puzzle: Same State NG 2) | 10.1 | 55.7 | 85.4 | – | – | –
11 | GGUGCAAUAAACGCCUACAUGAGGAUCACCCAUGUAUGUAGGCAGGAUAUCGUAUGCAAAGCAUACGAGAAGGGCUGUAGUACC [Mat - Same State NG 3 - JL Mod - D42] (Eterna round: R96, puzzle: Same State NG 3) | 53.7 | 116 | 118 | – | – | –
12 | GGUCCAGCCUGAGCUGGACAAAAGCAUGUACAUGAGGAUCACCCAUGUCAUGUACAAGCUUUUUGCUCGUCAGAAAG [Mat - hsa-mir-208a - 98] (puzzle: Sensor for hsa-mir-208a) | – | – | – | 62.7 | 16.9 | 89.8
13 | GUAAAGAAUUAAGGAUAUUGAAUACAUAUGUUUAACAUGAGGAUCACCCAUGUGGGUUGCGGUAUCGAGAAGGUAAAAUAAAAG [Mat - Same State NG 2 - JL mod - D7] (Eterna round: R96, puzzle: Same State NG 2) | 137 | 105 | 124 | – | – | –
14 | AGUCCAGCCUGAGCUGGACAAAGACAUGUACAUGAGGAUCACCCAUGUCAUGUACAAGUUUUUUGCUCGUCUUAUAA (puzzle: Sensor for hsa-mir-208a) | – | – | – | 36.7 | 12.5 | 44.1
15 | CAAGUACAUGAGGAUCACCCAUGUGGAAGAGAUGCAGGAUAUGUGGAGGAAGGGAGUGUAACAGAAGGGCAAGGAG [JR_SS!_Sub020] (puzzle: Same State 1) | – | – | – | 39.9 | 45.6 | 50.8
16 | ACAUGAAAUUGAGGAUAUUUUGUACCUACAUGUGACAUGAGGAUCACCCAUGUGGUAAGUAUGAGAAAGAAGGCAAAGAUAUGU [Equivalence 11 - Jieux - Same State NG 2] (Eterna round: R96, puzzle: Same State NG 2) | 26.6 | 43.3 | 51 | – | – | –

Row | Sequence | apparent KD of MS2 coat protein (input ligand: FMN 200 uM) [nM] | apparent KD of MS2 coat protein [1] [nM] | apparent KD of MS2 coat protein (input ligand: none) [nM] | apparent KD of MS2 coat protein [2] [nM] | apparent KD of MS2 coat protein [3] [nM] | apparent KD of MS2 coat protein [4] [nM]
17 | UGUUGUAUUACAGGAUAUCUAUGAUUUAUAUUUAGAGAAGGGUAUUCACAUGAGGAUCACCCAUGUAUAUACGAGGAAGUUGUG [JMF's solution 61] (Eterna round: R96, puzzle: Same State NG 1) | – | 33.6 | – | – | – | –
18 | UCGGGCGUACUUGCUGACAUGAGGAUCACCCAUGUGAUUGGGAAGGAUAUGGUUCCGUUUCGGUUCCAGAAGGUCCUGGGUGCU [salish99_SSNG3_r04_313] (Eterna round: R96, puzzle: Same State NG 3) | 482 | 459 | 370 | – | – | –
19 | GCUCGUAUGAUGACCGACAUGAGGAUCACCCAUGUGUGUUGGUAGGAUAUCUAUAUUAAGGAUAUAGAGAAGGGCCGAACGAGC [SameState NG3 #16] (Eterna round: R96, puzzle: Same State NG 3) | 22.4 | 23.6 | 30.6 | – | – | –
20 | CUGCACCGUGGAGGAUAUGGGCUGAGGCCAGGACAACCCUGGCCAACAUGAGGAUCACCCAUGUCCCAGAAGGCCACAGUGCUA [Zaenmaxe] (Eterna round: R96, puzzle: Same State NG 2) | 15.1 | 86.7 | 112 | – | – | –
21 | AAUUUAAUACAUGAGGAUCACCCAUGUAAAUUAAUUAAGAUCUAGGAUAUCAGCUCGAUUAGAGCUGAGAAGGAGAUCACAUGU [SSNG3/19-B2] (Eterna round: R96, puzzle: Same State NG 3) | – | 12 | – | – | – | –
22 | GAGUGGUAAAGAGGAUAUGCAUUGUUAUUCACUGCAGAAGGUUUUAACAUGAGGAUCACCCAUGUAGGACUAUUCCUGUGUUUC [Parity 64 - Jieux - Same State NG 1] (Eterna round: R96, puzzle: Same State NG 1) | – | 10.3 | – | – | – | –
23 | CUCAAAACAAGUUGCAGUGUUCGUCUUUAACAUGAGGAUCACCCAUGUAAUAACCCAGUGGAAGCGCUCGGGCCACC [Ineson] (puzzle: Sensor for hsa-mir-208a) | – | – | – | 30.2 | – | 28.5
24 | GUAGCAUACCGAGGAUAUUCAUAUUAUACAUGAGGAUCACCCAUGUAAGGUCGAUUACGACCUUGGGAGAAGGCGGAAUGCUAC [Xeonanis - 20 Mod34] (Eterna round: R96, puzzle: Same State NG 2) | 20.3 | 71.9 | 108 | – | – | –
25 | UUGAAGAAUUAAGGAUAUCGAGUCGUCAGAUUAUACAUGAGGAUCACCCAUGUGGGUUGCGGUAUCGAGAAGGUAAAUUACAAG [JL JR Sub099 mod 5] (Eterna round: R96, puzzle: Same State NG 2) | 37.5 | 58.4 | 60 | – | – | –
26 | AACAGUCGGCGAGGAUAUGGACAUACGGACUAACCCGUAUGGCUCACAUGAGGAUCACCCAUGUUCUAGAAGGCGCCACUGAAA [Raridi] (Eterna round: R96, puzzle: Same State NG 2) | 14.6 | 43.4 | 74 | – | – | –
27 | UUUUUGUUCCGAGGAUAUCCUUUUUUCUUACAUGAGGAUCACCCAUGUAAAGGGAUUGAGUUGUAGGAGAAGGCGGUUUUGUUU [JR_SSNG2_Sub061] (Eterna round: R96, puzzle: Same State NG 2) | 16.4 | 26.1 | 26.2 | – | – | –
28 | UUACUCAUGUAAGGAUAUGCAGCCGAAACGGCUGCAGAAGGUACUAAAAUACAUGAGGAUCACCCAUGUCUAAUUAAUUAAGAC [Mat - Same State NG 1 - JL mod - D84] (Eterna round: R96, puzzle: Same State NG 1) | 139 | 36.3 | 66.5 | – | – | –
29 | GAAGGAUGAGCGUAGGAUAUAGGAGGAGUGACAUGAGGAUCACCCAUGUGGUAUGAGGGAGGAUUCUAGAAGGACGCGGUAGAAG [JR_SS2_Sub065] (puzzle: Same State 2) | – | – | – | 89.9 | 150 | 161
30 | ACAUGAGAGAUAGGAUAUCAUGUACCUACAUGUGACAUGAGGAUCACCCAUGUGGUAAGUAUGAGUGAGAAGGAUCAGAUAUGU [Equivalence 35 - Jieux - Same State NG 2] (Eterna round: R96, puzzle: Same State NG 2) | 47.9 | 272 | 467 | – | – | –
31 | AUCUCUGUGCCGCAGGAUAUACCAACGGCUACAUGAGGAUCACCCAUGUCAUACCGUCGAAAGUGGUAGAAGGGUGUGCACGAGC [Reteonar] (puzzle: Same State 2) | – | – | – | 17.7 | 90.6 | 113
